From paper PMC11371640, “Structural deficits in key domains of Shank2 lead to alterations in postsynaptic nanoclusters and to a neurodevelopmental disorder in humans” (Molecular Psychiatry, 2022) come the findings set out here.

Substitutions are numbered along the chain they refer to. Where “and” joins values, the source holds several entries; their conditions need not be identical. Identical values can stand only once.

The target in assay [1] is T1, His6-SUMO-tagged SH3 to PDZ domains of Shank2 (R520-D727), N690S ( (human or rat cDNA cloned), UniProt Q9UPX8-3 520-727, N690S).
T1 sequence: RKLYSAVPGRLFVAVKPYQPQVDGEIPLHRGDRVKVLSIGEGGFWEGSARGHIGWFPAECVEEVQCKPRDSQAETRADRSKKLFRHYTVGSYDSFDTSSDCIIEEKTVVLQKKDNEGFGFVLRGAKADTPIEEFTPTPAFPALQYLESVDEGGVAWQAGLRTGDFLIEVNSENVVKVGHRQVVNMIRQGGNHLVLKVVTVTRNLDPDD
Description: ITC. On the technique in general: ITC needs no label: the signal is the heat of the interaction.

Assay [2] concerns the target T2, His6-SUMO-tagged SH3 to PDZ domains of Shank2 (R520-D727), S610Y ( (human or rat cDNA cloned), UniProt Q9UPX8-3 520-727, S610Y).
T2 sequence: T1 sequence with S91Y, S171N
Description: ITC.

Assay [3] has as its target T3, His6-SUMO-tagged SH3 to PDZ domains of Shank2 (R520-D727), WT ( (human or rat cDNA cloned), UniProt Q9UPX8-3 520-727).
T3 chain: T1 sequence with S171N
Description: ITC.

Assay [4] concerns the target T4, His6-SUMO-tagged SH3 to PDZ domains of Shank2 (R520-D727), V717F ( (human or rat cDNA cloned), UniProt Q9UPX8-3 520-727, V717F).
T4 sequence: T1 sequence with S171N, V198F
The assay can be described thus: ITC.

Assay [5] has as its target T5, His6-SUMO-tagged SH3 to PDZ domains of Shank2 (R520-D727), G643R ( (human or rat cDNA cloned), UniProt Q9UPX8-3 520-727, G643R).
T5 sequence: T1 sequence with G124R, S171N
The assay can be described thus: ITC.

Assay [6] deals with T6, His6-SUMO-tagged SH3 to PDZ domains of Shank2 (R520-D727), V717F ( (human or rat cDNA cloned), UniProt Q9UPX8-3 520-727, V717F).
T6 construct: Shank2, SH3 to PDZ domains, residues R520-D727, patient variant V717F; numbers count on: NM_012309.5 (isoform of 1849 residues); source: E. coli BL21(DE3), purified (Ni-NTA agarose, G-25); not shown: His6, N-terminal, kept; SUMO, N-terminal, kept
T6 sequence (looked up): T1 sequence with S171N, V198F
Description: ITC; peptide in the syringe (200 µM; 1 mM for G643R), His6-SUMO SH3-PDZ protein in the cell (20-30 µM); 25 °C; 50 mM Tris-HCl pH 8.0, 100 mM NaCl, 1 mM EDTA; 1:1 binding model. The note with it: both partners purified.

The target of assay [7] is T7, His6-SUMO-tagged SH3 to PDZ domains of Shank2 (R520-D727), N690S ( (human or rat cDNA cloned), UniProt Q9UPX8-3 520-727, N690S).
T7 construct: Shank2, SH3 to PDZ domains, residues R520-D727, patient variant N690S; numbers count on: NM_012309.5 (isoform of 1849 residues); source: E. coli BL21(DE3), purified (Ni-NTA agarose, G-25); not shown: His6, N-terminal, kept; SUMO, N-terminal, kept
T7 sequence (looked up): T1 sequence
The description is as above. The following applies: both partners purified.

The target of assay [8] is T8, His6-SUMO-tagged SH3 to PDZ domains of Shank2 (R520-D727), WT ( (human or rat cDNA cloned), UniProt Q9UPX8-3 520-727).
T8 construct: Shank2, SH3 to PDZ domains, residues R520-D727; numbers count on: NM_012309.5 (isoform of 1849 residues); Cloned into pET-SUMO; also called His6-SUMO-SH3-PDZ fusion; Shank2 WT; source: E. coli BL21(DE3), purified (Ni-NTA agarose, G-25); not shown: His6, N-terminal, kept; SUMO, N-terminal, kept
T8 sequence (looked up): T1 sequence with S171N
The assay is described as above. The note with it: both partners purified.

In assay [9] the target is T9, His6-SUMO-tagged SH3 to PDZ domains of Shank2 (R520-D727), S610Y ( (human or rat cDNA cloned), UniProt Q9UPX8-3 520-727, S610Y).
T9 construct: Shank2, SH3 to PDZ domains, residues R520-D727, patient variant S610Y; numbers count on: NM_012309.5 (isoform of 1849 residues); source: E. coli BL21(DE3), purified (Ni-NTA agarose, G-25); not shown: His6, N-terminal, kept; SUMO, N-terminal, kept
T9 sequence (looked up): T1 sequence with S91Y, S171N
Described as above. The note with it: both partners purified.

The target in assay [10] is T10, His6-SUMO-tagged SH3 to PDZ domains of Shank2 (R520-D727), G643R ( (human or rat cDNA cloned), UniProt Q9UPX8-3 520-727, G643R).
T10 construct: Shank2, SH3 to PDZ domains, residues R520-D727, patient variant G643R; numbers count on: NM_012309.5 (isoform of 1849 residues); also called G643R mutant Shank2; G643R variant; source: E. coli BL21(DE3), purified (Ni-NTA agarose, G-25); not shown: His6, N-terminal, kept; SUMO, N-terminal, kept
T10 sequence (looked up): T1 sequence with G124R, S171N
Described as above. The note with it: both partners purified.

B1: synthetic peptide of the complete PDZ ligand of GKAP (last 15 amino acids of GKAP/SAPAP1) (peptide)
peptide: ADSIEIYIPEAQTRL
notes: GKAP/SAPAP1, the last 15 amino acids (complete PDZ ligand), free N- and C-terminus; also called GKAP peptide; source: synthetic peptide (Genscript)
One may read the Kd as the equilibrium constant for the complex coming apart. A higher Kd goes with a looser complex. In the case of B1, the Kd in [1] is 411 nM; in [2], 910 nM; in assay [3] it was 319 nM and 320 nM; in assay [4] it was 848 nM; in [5], 22000 nM and 22500 nM. The binding result in [6], in [7], in assay [8] and in [9] was “binds” in each case. Also, the “fold reduction of affinity against WT” value in [10] was over 70 fold.
